Data as given in US20160040149A1, “Compositions Having Dicamba Decarboxylase Activity and Methods of Use” (priority 2013, published 2016).

B1: 1 (protein, listed as Rhizobium sp.)
chain: MAQGKVALEEHFAIPETLQDSAGFVPGDYWKELQHRLLDIQDTRLKLMDAHGIETMILSLNAPAVQAIPDRRKAIEIARRANDVLAEECAKRPDRFLAFAALPLQDPDAATEELQRCVNDLGFVGALVNGFSQEGDGQTPLYYDLPQYRPFWGEVEKLDVPFYLHPRNPLPQDSRIYDGHPWLLGPTWAFAQETAVHALRLMASGLFDEHPRLNIILGHMGEGLPYMMWRIDHRNAWVKLPPRYPAKRRFMDYFNENFHITTSGNFRTQTLIDAILEIGADRILFSTDWPFENIDHASDWFNATSIAEADRVKIGRTNARRLFKLDGA
B2: 121 (protein)
chain: MAIIDCHGHYTTTPKGVEDYRNAQKAAVAKDPSFKGEKGQVVVSDDEIRESIENNQLKMQRERGTDLTIFSPRWDAGGHHIGNEYTSQFWTEHQNDLIRRVCDLFPKNFAPVAQLPQSPGVDPAKSVPEIVRTVEQMGFIGINLNPDPSGGYWKDTSLADRAFYPIYEKMVEYDIPAMIHPRLACNACFHTGLSVGLGADTTGFQQLIMSDVFKDFPSLKIIIPHGGGAVPYHWGRFRGLMQDQGYAPLEESALKNIYFDTCVYHQRGIDLLLDIVPTQNILFASEMIGAVRGIDPETGHNFDDTKRYIDNNTALNAEEKAMIFEGNARRVFSRLKTD
modifications: Dicamba decarboxylase variant clone: DC.12.014
B3: 122 (protein)
chain: MAIIDCHGHYTTTPKGVEDYRNAQKAAVAKDPSFKGEKGQVVVSDDEIRESIENNQLKMQRERGTDLTIFSPRSTAGGHHIGNEYTSQFWTEHQNDLIRRVCDLFPKNFAPVAQLPQSPGVDPAKSVPEIVRTVEQMGFIGINLNPDPSGGYWKDTSLADRAFYPIYEKMVEYDIPAMIHPRNACNDCFHTTGSHALGADTTGFQQLIMSDVFKDFPSLKIIIPHGGGAVPYHWGRFRGLMQDQGYAPLEESALKNIYFDTCVYHQRGIDLLLDIVPTQNILFASDMIGAVRGIDPETGHNFDDTKRYIDNNTALNAEEKAMIFEGNARRVFSRLKTD
modifications: Dicamba decarboxylase variant clone: DC.12.103

Columns and labels:
[1] = Dicamba decarboxylase activity / product analysis with purified His-tag protein (14C assay and product detection of Example 1); assay type: biochemical; conditions: for dicamba decarboxylase activity: statement of the description; for other products (than 2,5-DCA): purified protein, dicamba substrate
Method: To obtain purified protein for activity assays, IPTG-induced cells were harvested by centrifugation at 7,000 rpm for 10 mins Cell pellet from 50 mL of cell culture was frozen and thawed twice and then lysed in 8004 lysis buffer consisting of 50 mM potassium phosphate buffer (pH7.0), 50 μM ZnSO4, 5% EG, 50 mM KCl, 1 mM DTT, 0.2 mg/ml lysozyme, 1/200 protease inhibitor cocktail (EMD set3, EDTA free), and 1/2,000 endonuclease. Lysate was then centrifuged at 13,000 rpm for 45 min at 4° C. Supernatant was loaded onto 200 μL Ni-NTA columns pre-equilibrated with 10 mM His Buffer containing 25 mM potassium phosphate buffer pH7, 50 μM ZnSO4, 5% EG, 200 mM KCl, and 10 mM histidine. The columns were let sit at 4° C. until the entire supernatant passed through. Each column was then washed with 200 ul 10 mM His Buffer twice and then 4 times with 800 ul loading buffer consisting of 25 mM potassium phosphate buffer pH7, 50 μM ZnSO4, 5% EG, 200 mM KCl. Protein was eluted with 1504 of Elution Buffer consisting of 25 mM potassium phosphate buffer pH7, 50 μM ZnSO4, 5% EG, 100 mM KCl, 100 mM histidine, 10% glycerol. The protein concentration was measured by Bradford assay. Purified protein was used for dicamba decarboxylase activity measurement as described in Example 1. Enzyme kinetic characterization of selected dicamba decarboxylases was determined through GC/MS measurement of 2,5-DCP or PEPC coupled assay as described in Example 1.

[2] = GC/MS detection of decarboxylation product 2,5-DCA (toluene trapping or head space); assay type: biochemical; conditions: purified protein, dicamba substrate
Method: Alternatively, dicamba decarboxylase activity can be monitored by measuring decarboxylation products other than CO2 using product detection methods. The decarboxylation product of dicamba, 2,5-dichloro anisole or 2,5-DCA (FIG. 1C), is a volatile compound with a flash point of 21° C. To capture this volatile compound for detection, 140 ul of toluene solution is added on top of 1 ml reaction mixture to form a trapping layer in a 1.5 ml eppendorf tube. […] The reaction is kept still at room temperature overnight before being vortex mixed and centrifuged at 14,000 rpm for 15 minutes. The top toluene phase is carefully removed using a micropipette and transferred into a 12×32 mm polypropylene vial (Vial 11 mm) from MicroLiter Analytical Supplies, Inc. (catalog number 11-5300-100). The vial is sealed with Crimp seal (11 mm with FEP/Nat Rubber) from MicroLiter Analytical Supplies, Inc. (catalog number 11-0020A) using a E-Z Crimper™ 11 mm from Wheaton Inc. lul of the toluene mixture is taken from the sealed vials and injected in splitless mode into a GC/MS system for sample analysis (Agilent GC/MS system with a 6890A GC, a 5973N MSD and a CTC CombiPAL auto-sampler or with a 7890A GC, a 5975C MSD and an Agilent GC Sampler 80 auto-sampler). The GC parameters are: Agilent DB-5MS column (30 m length, 0.25 mm diameter, 0.25 um film) or equivalent; The GC inlet temperature, 250° C.; Carry gas, helium in constant flow mode (1.2 mL/min); The GC oven temperature program, initial temperature at 70° C. for 1 min, ramping to 200° C. at 15° C./min, and then ramping to 250° C. at 30° C./min. MS data acquisition is done in SIM (selected ion monitoring) mode, monitoring the positive ion at M/Z 176 for the molecular ion of […]. The solvent delay for MS acquisition is set at 4 min. Another method for detection of 2,5-DCA is a head-space GC/MS method. Briefly, reaction mixtures in 500 ul reaction volume are prepared in 1.5 ml 12×32 mm glass vials (Microliter Analytical Supplies, Cat#11-1200) for head space analysis. Glass vials are sealed with magnetic cap from MicroLiter Analytical Supplies, Inc. (catalog number 11-0030AT) using a E-Z Crimper™ 11 mm from Wheaton Industries Inc. The reaction is carried out at room temperature for various amount of time and stopped by heating at 95° C. for 5 min. The reaction vial is transferred to a agitator for incubation at 80° C. for 5 min at 500 rpm. With a syringe preheated at 80° C., 1000 uL of head space is injected with sample fill speed at 100 uL/sec. GC/MS parameters for headspace analysis are the same as for liquid sample analysis.

[3] = LC-MS/MS detection of 4-chloro-3-methoxy phenol; assay type: biochemical; conditions: purified protein, dicamba substrate
Method: The decarboxylated and chloro hydrolyzed product, 4-chloro-3-methoxy phenol (FIG. 1D), is measured using a LC-MS/MS analytical procedure. […] 10 ul is removed from the reaction mixture and mixed with 90 ul pre-chilled methanol followed by centrifugation at 14,000 rpm for 15 min at 4° C. 10 ul of the supernatant is then transferred into 170 ul ddH2O to achieve 5% methanol solution for injection. 50 ul of the prepared sample is injected into a 4000 Q Trap LC-MS/MS system for sample analysis. LC-MS/MS parameters are: Mobile Phase A, 2 mM ammonium acetate in water; Mobile Phase B, 2 mM ammonium acetate in methanol; Column, Aquasil, 100×2.1 mm, 3 μm, C18 column; Flow Rate, 0.6 ml/min. The MS/MS fragment 157/142 which is common to 4-chloro-3-methoxy phenol, 2-chloro-5-methoxy phenol, and 3-chloro-5-methoxy phenol is monitored at a retention time of 2.88 min.

[4] = GC/MS detection of 2,5-DCP; assay type: biochemical; conditions: purified protein, dicamba substrate
Method: The decarboxylated and demethylated product of dicamba, 2,5-dichloro phenol or 2,5-DCP (FIG. 1E) is measured using a GC/MS analytical procedure with either liquid injection after liquid/liquid extraction using toluene as the extraction solvent or gas injection using head space method. The head space sample analysis is carried out on an Agilent GC/MS system with a 6890A GC, a 5973N MSD and a CTC CombiPAL auto-sampler or with a 7890A GC, a 5975C MSD and an Agilent GC Sampler 80 auto-sampler with Phenomenex ZB-MultiResidue-1 column (30 m length, 0.25 mm diameter, 0.25 um film) or equivalent. GC/MS parameters are: GC inlet temperature, 200° C.; Carry gas, helium in constant flow mode (1.2 mL/min); Oven temperature program, 70° C. for 1 min and then ramp to 275° C. at 40° C./min. Protein reactions are carried out in a 1.5 ml 12×32 mm glass vials for head space analysis as described previously. The reaction vial is transferred to a agitator for incubation at 90° C. for 4 min at 500 rpm. With a syringe preheated at 110° C., 1000 uL of head space is injected with sample fill speed at 100 uL/sec. A 2-mm diameter liner is used in sample inlet. The MS data acquisition is done in SIM (selected ion monitoring) mode. The positive ion at M/Z 162 for the molecular ion of 2,-5-DCP is monitored at retention time of 4.06 min. Solvent delay for MS acquisition is set at 3 min. […]

[5] = Saturation mutagenesis of SEQ ID NO:109: dicamba decarboxylation activity of point mutants (CO2 released), fold of backbone (Tables 7, 8, Megatable 1); conditions: decarboxylation activity (CO2 released) of point mutant vs unmutated backbone protein; backbone SEQ ID NO: 109

Row | Molecule | dicamba decarboxylase activity [1] | relative amount of 2,5-DCA compared to CO2 formation (100%) [2] [%] | relative amount of 4-chloro-3-methoxy phenol compared to CO2 formation (100%) [3] [%] | relative amount of 2,5-DCP compared to CO2 formation (100%) [4] [%] | Fold Activity [5] [fold] | other products (than 2,5-DCA) [1] | minor decarboxylation product 2,5-DCA [2]
1 | B1 | native dicamba decarboxylase activity | < 1 | < 10 | > 80 | 1.2 |  | 
2 | B2 | shown herein to have dicamba decarboxylase activity |  |  |  | 1 | not detected | detected
3 | B3 | shown herein to have dicamba decarboxylase activity |  |  |  | 0.9 | not detected | detected
